Assay results taken from patent publication US20220411487A1.

Molecular target: catalytically inactive full length human TMPRSS6 on HEK293 cells (HEK293/hTMPRSS6 (S762A)) (human) (UniProt Q8IU80)
Experiment: flow cytometry, HEK293 cells expressing target

catalytically inactive full length human TMPRSS6 on HEK293 cells (HEK293/hTMPRSS6 (S762A)) (human), sequence (Q8IU80 10-811 S762A): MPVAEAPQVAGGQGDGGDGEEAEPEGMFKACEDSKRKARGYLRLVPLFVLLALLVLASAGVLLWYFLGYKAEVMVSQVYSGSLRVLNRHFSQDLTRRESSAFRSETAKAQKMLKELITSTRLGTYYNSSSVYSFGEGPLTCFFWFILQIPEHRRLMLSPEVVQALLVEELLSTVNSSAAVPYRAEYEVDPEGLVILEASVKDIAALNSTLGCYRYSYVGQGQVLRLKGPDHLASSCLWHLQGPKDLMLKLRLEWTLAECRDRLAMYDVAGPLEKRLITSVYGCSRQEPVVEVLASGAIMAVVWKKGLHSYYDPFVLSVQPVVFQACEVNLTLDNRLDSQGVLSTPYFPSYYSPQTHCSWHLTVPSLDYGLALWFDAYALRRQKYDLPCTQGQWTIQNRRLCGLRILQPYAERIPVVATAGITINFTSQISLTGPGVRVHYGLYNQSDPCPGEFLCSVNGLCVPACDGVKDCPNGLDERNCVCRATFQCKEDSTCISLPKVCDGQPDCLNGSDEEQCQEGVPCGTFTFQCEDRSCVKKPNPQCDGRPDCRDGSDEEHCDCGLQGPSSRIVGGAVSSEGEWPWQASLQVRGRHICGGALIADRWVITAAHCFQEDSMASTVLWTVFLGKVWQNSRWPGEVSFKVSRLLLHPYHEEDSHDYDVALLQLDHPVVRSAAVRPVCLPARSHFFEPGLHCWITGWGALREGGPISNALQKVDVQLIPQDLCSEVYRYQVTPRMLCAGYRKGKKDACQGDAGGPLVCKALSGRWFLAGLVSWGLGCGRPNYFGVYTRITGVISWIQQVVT

EC50: 2 nM
Max. Fold Binding (fold over unstained control): 300
B1: REGN8023 (antibody, human IgG4 S228P, kappa, V domains shown)
VH: EVQLVESGGGLVKPGGSLRISCAASGFIFVDYAMHWVRQAPGKGLEWVSGISWNSGSIGYADSVKGRFTISRDNAKKSLYLQMSGLRPEDTALYYCVKSGFYYVRSYFDNWGQGTLVTVSS
VL: DIVMTQSPLSLPVTPGEPASISCRSSQSLLDSDDGNTYLDWYLRKPGQSPQLLIYTLSYRASGVPDRFSGSGSGTDFTLKISRVEADDVGVYYCMQRIEFPLTFGGGTKVEIKR
